# Source: paper PMC5707476, “Enzyme repurposing of a hydrolase as an emergent peroxidase upon metal binding” (Chemical Science, 2015)
# Residue numbers refer to the chain shown, from its start. Names may count otherwise.
# B1: 6-phosphogluconolactonase (6-PGLac; Cu·6-PGLac) (Mycolicibacterium smegmatis MC2 155; N131D) (protein)
# chain: MSDTVIERHADTAALVAAAGDRLVDAISSAIGERGQATIVLTGGGTGIGLLKRVRERSGEIDWSKVHIYWGDERFVPQDDDERNDKQAREALLDHIGIPPVNVHAMAASDGEFGDDLEAAAAGYAQLLSADFDSSVPGFDVHLLGMGGEGHVNSLFPDTDAVRETERLVVGVSDSPKPPPRRITLTLPAVQNSREVWLVVSGEAKADAVAAAVGGADPVDIPAAGAVGRERTVWLVDEAAAAKL
# notes: Strep-tag II, expressed in E. coli, purified, loaded with Cu(II)
# B2: 6-phosphogluconolactonase (6-PGLac; Cu·6-PGLac) (Mycolicibacterium smegmatis MC2 155; H9A/N131D) (protein)
# chain: B1 chain with H9A
# notes: as for B1
# B3: 6-phosphogluconolactonase (6-PGLac; Cu·6-PGLac) (Mycolicibacterium smegmatis MC2 155; N131D/Y69L) (protein)
# chain: B1 chain with Y69L
# notes: as for B1
# B4: 6-phosphogluconolactonase (6-PGLac; Cu·6-PGLac) (Mycolicibacterium smegmatis MC2 155; H95A/N131D) (protein)
# chain: B1 chain with H95A
# notes: as for B1
# B5: 6-phosphogluconolactonase (6-PGLac; Cu·6-PGLac) (Mycolicibacterium smegmatis MC2 155; N131D/Y69F) (protein)
# chain: B1 chain with Y69F
# notes: as for B1
# B6: 6-phosphogluconolactonase (6-PGLac; Cu·6-PGLac) (Mycolicibacterium smegmatis MC2 155; N131D/Y69W) (protein)
# chain: B1 chain with Y69W
# notes: as for B1
# Substrate: COc1cc(-c2ccc(N)c(OC)c2)ccc1N
# Assay: purified protein
# Format: biochemical, Mycolicibacterium smegmatis
# Conditions: 6.6 mM t-BuOOH, 4.5 μM Cu(II)
# [1] = 6-PGLac (parent), 1.25 μM protein, MES pH 6.5, 150 mM NaCl, 25 °C, free copper background subtracted
# [2] = D131N (reversion of parent N131D = natural sequence), 1.25 μM protein, MES pH 6.5, 150 mM NaCl, 25 °C, free copper background subtracted
# [3] = H9A on the N131D parent, MES pH 6.5, 25 °C
# [4] = Y69L on the N131D parent, MES pH 6.5, 25 °C
# [5] = H95A on the N131D parent, MES pH 6.5, 25 °C
# [6] = Y69F on the N131D parent, MES pH 6.5, 25 °C
# [7] = Y69W on the N131D parent, MES pH 6.5, 25 °C
protein,measurement,setting,value
B1,Km,[1],11 ± 3 µM
same,kcat,[1],78 ± 4 × 10^-3 s^-1
same,kcat/Km,[1],6900 ± 2000 M⁻¹ s⁻¹
same,Km,[2],21 ± 6 µM
same,kcat,[2],150 ± 10 × 10^-3 s^-1
same,kcat/Km,[2],7200 ± 2000 M⁻¹ s⁻¹
B2,Km,[3],12 ± 5 µM
same,kcat,[3],80 ± 6 × 10^-3 s^-1
same,kcat/Km,[3],6500 ± 3000 M⁻¹ s⁻¹
B3,Km,[4],82 ± 10 µM
same,kcat,[4],490 ± 30 × 10^-3 s^-1
same,kcat/Km,[4],5900 ± 900 M⁻¹ s⁻¹
B4,Km,[5],17 ± 5 µM
same,kcat,[5],80 ± 6 × 10^-3 s^-1
same,kcat/Km,[5],4600 ± 2000 M⁻¹ s⁻¹
B5,Km,[6],36 ± 8 µM
same,kcat,[6],100 ± 7 × 10^-3 s^-1
same,kcat/Km,[6],2900 ± 700 M⁻¹ s⁻¹
B6,Km,[7],4.8 ± 2 µM
same,kcat,[7],33 ± 2 × 10^-3 s^-1
same,kcat/Km,[7],6900 ± 3000 M⁻¹ s⁻¹
